Assay results reported in paper PMC9529347.

Target: SARS-CoV-1 RBD monomer (N321-P513) with C-terminal AVI-tag and 6xHIS-tag (SARS-CoV-1)
Assay: SPR

Sequence of soluble human ACE2, truncated ectodomain (S19-D615), C-terminal 6xHIS-tag (Q9BYF1 19-615): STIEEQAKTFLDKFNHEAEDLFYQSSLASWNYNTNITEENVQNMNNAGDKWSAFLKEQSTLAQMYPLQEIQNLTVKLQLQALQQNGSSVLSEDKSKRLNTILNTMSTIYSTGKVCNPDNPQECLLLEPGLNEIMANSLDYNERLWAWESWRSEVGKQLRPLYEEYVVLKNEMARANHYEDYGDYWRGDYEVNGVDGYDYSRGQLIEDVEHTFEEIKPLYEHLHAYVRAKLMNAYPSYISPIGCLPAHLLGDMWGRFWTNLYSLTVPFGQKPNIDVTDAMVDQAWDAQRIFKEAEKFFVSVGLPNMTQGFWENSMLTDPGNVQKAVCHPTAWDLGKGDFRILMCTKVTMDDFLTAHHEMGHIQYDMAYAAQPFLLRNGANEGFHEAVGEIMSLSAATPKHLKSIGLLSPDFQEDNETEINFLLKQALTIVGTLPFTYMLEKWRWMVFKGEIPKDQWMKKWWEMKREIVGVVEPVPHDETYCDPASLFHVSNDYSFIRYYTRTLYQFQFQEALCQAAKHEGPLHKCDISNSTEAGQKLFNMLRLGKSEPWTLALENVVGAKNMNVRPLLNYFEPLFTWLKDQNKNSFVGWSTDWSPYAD

Substance: soluble human ACE2, truncated ectodomain (S19-D615), C-terminal 6xHIS-tag (from UniProt Q9BYF1 19-615) (receptor)
- Kd: 253 nM
